Columns and labels:
Format in all cases: in vivo
Details in all cases: 7 DAT, number of plants of 24 per genotype, grades
[1] = tested on: Arabidopsis thaliana T1 plants; test: sulfentrazone tolerance of transgenic Arabidopsis thaliana T1 plants (spray, grade of pesticide damage)
Description: (§1) The transformed Arabidopsis thaliana T1 plants were initially selected using glufosinate herbicide. The Arabidopsis thaliana T1 plants (PPO1A) into which the PPO1A nucleotide sequence was introduced, the Arabidopsis thaliana T1 plants (PPO2A) into which the PPO2A nucleotide sequence was introduced, the Arabidopsis thaliana T1 plants (PPO3A) into which the PPO3A nucleotide sequence was introduced, the Arabidopsis thaliana T1 plants (PPO4A) into which the PPO4A nucleotide sequence was introduced, the Arabidopsis thaliana T1 plants (PPO5A) into which the PPO5A nucleotide sequence was introduced, the Arabidopsis thaliana T1 plants (PPO6A) into which the PPO6A nucleotide sequence was introduced, the Arabidopsis thaliana T1 plants (PPO7A) into which the PPO7A nucleotide sequence was introduced, the Arabidopsis thaliana T1 plants (PPO8A) into which the PPO8A nucleotide sequence was introduced, the Arabidopsis thaliana T1 plants (PPO9A) into which the PPO9A nucleotide sequence was introduced, the Arabidopsis thaliana T1 plants (PPO10A) into which the […] nucleotide sequence was introduced, the Arabidopsis thaliana T1 plants (PPO11A) into which the PPO11A nucleotide sequence was introduced, the Arabidopsis thaliana T1 plants (PPO12A) into which the PPO12A nucleotide sequence was introduced, the Arabidopsis thaliana T1 plants (PPO13A) into which the PPO13A nucleotide sequence was introduced, the Arabidopsis thaliana T1 plants (PPO14A) into which the PPO14A nucleotide sequence was introduced, the Arabidopsis thaliana T1 plants (PPO-ATA) into which the PPO-ATA nucleotide sequence was introduced, the Arabidopsis thaliana T1 plants (PPO-APA) into which the PPO-APA nucleotide sequence was introduced, the Arabidopsis thaliana T1 plants (control vector) into which the control vector was introduced, and the wild-type Arabidopsis thaliana plants (CK) (with 24 plants being included in each genotype) (18 days after sowing) were sprayed with oxyfluorfen at three concentrations (180 g ai/ha (one-fold field concentration, 1×), 720 g ai/ha (four-fold field concentration, 4×), and 0 g ai/ha (water, 0×)), saflufenacil at three concentrations (25 g ai/ha (one-fold field concentration, 1×), 100 g ai/ha (four-fold field concentration, 4×), and 0 g ai/ha (water, 0×)), flumioxazin at three concentrations (60 g ai/ha (one-fold field concentration, 1×), 240 g ai/ha (four-fold field concentration, 4×), and 0 g ai/ha (water, 0×), and sulfentrazone at three concentrations (450 g ai/ha (one-fold field concentration, 1×), 900 g ai/ha (two-fold field concentration, 2×), and 0 g ai/ha (water, 0×) to determine the tolerance of Arabidopsis thaliana to the herbicides. After 7 days of spraying (7 DAT), the damage level of each plant caused by the herbicide was evaluated according to the average of the damage levels (%) of plants (the average of the damage levels (%) of plants=the injured leaf area/the total leaf area×[…]), i.e., the grade of pesticide damage: grade 0 means that the growth status of plants is essentially consistent with those sprayed with the blank solvent (water); grade 1 means that the average of the damage levels of plants is less than 10%; grade 2 means that the average of the damage levels of plants is greater than […]; and grade 3 means that the average of the damage levels of plants is 100%. The plants having a growth status falling within grades 0 and 1 are classified as highly resistant plants; those having a growth status falling within grade 2 are classified as poorly resistant plants; and those having a growth status falling within grade 3 are classified as non-resistant plants.

[2] = tested on: Arabidopsis thaliana T1 plants; test: flumioxazin tolerance of transgenic Arabidopsis thaliana T1 plants (spray, grade of pesticide damage)
Description: as §1

[3] = tested on: Arabidopsis thaliana T1 plants; test: saflufenacil tolerance of transgenic Arabidopsis thaliana T1 plants (spray, grade of pesticide damage)
Description: as §1

[4] = tested on: Arabidopsis thaliana T1 plants; test: oxyfluorfen tolerance of transgenic Arabidopsis thaliana T1 plants (spray, grade of pesticide damage)
Description: as §1

Molecule | The grade of pesticide: grade 0 ([1]; sulfentrazone 450 g ai/ha (1×)) | The grade of pesticide: grade 1 ([1]; sulfentrazone 450 g ai/ha (1×)) | The grade of pesticide: grade 2 ([1]; sulfentrazone 450 g ai/ha (1×)) | The grade of pesticide: grade 3 ([1]; sulfentrazone 450 g ai/ha (1×)) | The grade of pesticide: grade 0 ([1]; sulfentrazone 900 g ai/ha (2×)) | The grade of pesticide: grade 1 ([1]; sulfentrazone 900 g ai/ha (2×)) | The grade of pesticide: grade 2 ([1]; sulfentrazone 900 g ai/ha (2×)) | The grade of pesticide: grade 3 ([1]; sulfentrazone 900 g ai/ha (2×)) | The grade of pesticide damage/plant: grade 0 ([2]; flumioxazin 60 g ai/ha (1×)) | The grade of pesticide damage/plant: grade 1 ([2]; flumioxazin 60 g ai/ha (1×)) | The grade of pesticide damage/plant: grade 2 ([2]; flumioxazin 60 g ai/ha (1×)) | The grade of pesticide damage/plant: grade 3 ([2]; flumioxazin 60 g ai/ha (1×)) | The grade of pesticide damage/plant: grade 0 ([2]; flumioxazin 240 g ai/ha (4×)) | The grade of pesticide damage/plant: grade 1 ([2]; flumioxazin 240 g ai/ha (4×)) | The grade of pesticide damage/plant: grade 2 ([2]; flumioxazin 240 g ai/ha (4×)) | The grade of pesticide damage/plant: grade 3 ([2]; flumioxazin 240 g ai/ha (4×)) | The grade of pesticide damage/plant: grade 0 ([3]; saflufenacil 25 g ai/ha (1×)) | The grade of pesticide damage/plant: grade 1 ([3]; saflufenacil 25 g ai/ha (1×)) | The grade of pesticide damage/plant: grade 2 ([3]; saflufenacil 25 g ai/ha (1×)) | The grade of pesticide damage/plant: grade 3 ([3]; saflufenacil 25 g ai/ha (1×)) | also measured
PPO2A: nucleotide sequence encoding microbial protoporphyrinogen oxidase PPO2 (SEQ ID NO:2), Arabidopsis thaliana/soybean common codon usage bias (nucleic acid, PPO2A Nucleotide Sequence) DNA: ATGAGAGCCTTGCTTCTCTACAGCAGTCAAGAAGGGCAGACAAGAAAAATCATTCAGAGAATAGCAGCTCAAATGCCTGAGTACACTTGTGAAGTTCAAGATTTGCATCAATCAATAGATATTGATTGGGCCGAGTATGACAAAGTTTTAATTGGTGCATCCATCCGGTATGGACGTTTGAACCCTGCACTTTACAGGTTCATTGAGCATCACCTCGTTGGTTTGACCTCAAGGAAGGCTGCTTTCTTCTGCGTAAATCTTACCGCAAGGAAAGAACAACAAGGGAAAGACACTCCACAGGGCTCTGCATATATTCAAACATTTTTGAAGAAGAGTGCTTGGCAACCCGAAAGGATTGCTGTTTTTGCTGGTGCCCTTTATTATCCAAGATACAGATGGTTTGATAAGATGATGATCCGACTCATCATGACGTTAACTGGAGGAGAAACTGATACATCTCAGGAGGTGGAATATACAAACTGGGATAAAGTCGTGAAGTTTGCAGAGCAGTTTCGGAATTGGTGA | 24 | 0 | 0 | 0 | 20 | 4 | 0 | 0 | 24 plant | 0 plant | 0 plant | 0 plant | 24 plant | 0 plant | 0 plant | 0 plant | 24 plant | 0 plant | 0 plant | 0 plant | The grade of pesticide damage/plant: grade 0 ([3]; saflufenacil 100 g ai/ha (4×)): 6 plant; The grade of pesticide damage/plant: grade 1 ([3]; saflufenacil 100 g ai/ha (4×)): 18 plant; The grade of pesticide damage/plant: grade 2 ([3]; saflufenacil 100 g ai/ha (4×)): 0 plant; The grade of pesticide damage/plant: grade 3 ([3]; saflufenacil 100 g ai/ha (4×)): 0 plant; The grade of pesticide damage/plant: grade 0 ([4]; oxyfluorfen 180 g ai/ha (1×)): 24 plant; The grade of pesticide damage/plant: grade 1 ([4]; oxyfluorfen 180 g ai/ha (1×)): 0 plant; The grade of pesticide damage/plant: grade 2 ([4]; oxyfluorfen 180 g ai/ha (1×)): 0 plant; The grade of pesticide damage/plant: grade 3 ([4]; oxyfluorfen 180 g ai/ha (1×)): 0 plant; The grade of pesticide damage/plant: grade 0 ([4]; oxyfluorfen 720 g ai/ha (4×)): 20 plant; The grade of pesticide damage/plant: grade 1 ([4]; oxyfluorfen 720 g ai/ha (4×)): 4 plant; The grade of pesticide damage/plant: grade 2 ([4]; oxyfluorfen 720 g ai/ha (4×)): 0 plant; The grade of pesticide damage/plant: grade 3 ([4]; oxyfluorfen 720 g ai/ha (4×)): 0 plant
PPO3A: nucleotide sequence encoding microbial protoporphyrinogen oxidase PPO3 (SEQ ID NO:3), Arabidopsis thaliana/soybean common codon usage bias (nucleic acid, PPO3A Nucleotide Sequence) DNA: ATGAGTGCCCTGTTGTTGTATTGTTCAACTGATGGTCAAACCAAGAAGATAATGACACAGATAGCTAATGAACTGAGACAACATGGTTATGAATGTGATGTGCGGGATCTTACTTCTGTTCAACAAAATCTCAATCTTTCAGCTTACAACAAAGTTTTGGTAGGAGCTTCCATAAGATATGGATACTTCAATAAAGCACTTGACAAGTTCATCACGAGGCACCTCTCTCAGTTAAACAACATGCCTTCTGCTTTCTTTGGTGTCAATTTGACTGCAAGAAAAGAAGAGAAGAGCACTCCCGAAACAAACAGTTACATCTGCAAGTTTCTAGACAAAACACCATGGAAACCAACCTTAACTGGAGTCTTCGCCGGGGCGCTTTTTTATCCTCGTTACAAATGGATTGATCGAGTGATGATTCAGCTTATCATGAAGATGACTAAAGGAGAAACCGATCCGACAAAAGAGATTGAGTATACAGATTGGAACAAGGTTTCGGAGTTTGCTACGAATTTTGCAAAGATTGGCTGA | 24 | 0 | 0 | 0 | 20 | 4 | 0 | 0 | 24 plant | 0 plant | 0 plant | 0 plant | 24 plant | 0 plant | 0 plant | 0 plant | 24 plant | 0 plant | 0 plant | 0 plant | The grade of pesticide damage/plant: grade 0 ([3]; saflufenacil 100 g ai/ha (4×)): 2 plant; The grade of pesticide damage/plant: grade 1 ([3]; saflufenacil 100 g ai/ha (4×)): 22 plant; The grade of pesticide damage/plant: grade 2 ([3]; saflufenacil 100 g ai/ha (4×)): 0 plant; The grade of pesticide damage/plant: grade 3 ([3]; saflufenacil 100 g ai/ha (4×)): 0 plant; The grade of pesticide damage/plant: grade 0 ([4]; oxyfluorfen 180 g ai/ha (1×)): 24 plant; The grade of pesticide damage/plant: grade 1 ([4]; oxyfluorfen 180 g ai/ha (1×)): 0 plant; The grade of pesticide damage/plant: grade 2 ([4]; oxyfluorfen 180 g ai/ha (1×)): 0 plant; The grade of pesticide damage/plant: grade 3 ([4]; oxyfluorfen 180 g ai/ha (1×)): 0 plant; The grade of pesticide damage/plant: grade 0 ([4]; oxyfluorfen 720 g ai/ha (4×)): 20 plant; The grade of pesticide damage/plant: grade 1 ([4]; oxyfluorfen 720 g ai/ha (4×)): 4 plant; The grade of pesticide damage/plant: grade 2 ([4]; oxyfluorfen 720 g ai/ha (4×)): 0 plant; The grade of pesticide damage/plant: grade 3 ([4]; oxyfluorfen 720 g ai/ha (4×)): 0 plant

Reference: patent US20240200091A1, “USE OF PROTOPORPHYRINOGEN OXIDASE” (BEIJING DABEINONG BIOTECHNOLOGY CO., LTD., priority 2021, published 2024)
